B1: CIgG4B1A1(G4S)2 (Fc fusion)
chain 1: GPPCPPCPAPEFLGGPSVFLFPPKPKDTLMISRTPEVTCVVVDVSQEDPEVQFNWYVDGVEVHNAKTKPREEQFNSTYRVVSVLTVLHQDWLNGKEYKCKVSNKGLPSSIEKTISKAKGQPREPQVYTLPPCQEEMTKNQVSLWCLVKGFYPSDIAVEWESNGQPENNYKTTPPVLDSDGSFFLYSRLTVDKSRWQEGNVFSCSVMHEALHNHYTQKSLSLSLGKGGGGSGGGGSQVQLQESGGGLVQTGGSLRLSCAVHGRTFSNTGMGWFRQAPGNERQFVAIISPSGTSTYYADSVKGRFTISRDPAKNTVYLQMNSLKMDDTAVYYCAASYGSNWSTLRHQRRNEYDAWGQGTQVAVS
chain 2: GPPCPPCPAPEFLGGPSVFLFPPKPKDTLMISRTPEVTCVVVDVSQEDPEVQFNWYVDGVEVHNAKTKPREEQFNSTYRVVSVLTVLHQDWLNGKEYKCKVSNKGLPSSIEKTISKAKGQPREPQVCTLPPSQEEMTKNQVSLSCAVKGFYPSDIAVEWESNGQPENNYKTTPPVLDSDGSFFLVSRLTVDKSRWQEGNVFSCSVMHEALHNHYTQKSLSLSLGKGGGGSGGGGSEVQLLESGGGLVQPGGSLRLSCAASGFTFGNYDMAWVRQAPGKRPEWVSSIDTGGDITHYADSVKGRFTISRDNAKNTLYLQMNSLRPEDTAVYWCATDEEYALGPNEFDYYGQGTLVTVSS
B2: A2+B1 (protein)
VHH 1: EVQLLESGGGLVQPGGSLRLSCAASGFRFGNYDMAWVRQAPGKRYEWVSSIDTGGDITHYADSVKGRFTISRDNAKNTLYLQMNSLRPEDTAEYWCATDEEYALGPNEFDYYGQGTLVTVS
VHH 2: QVQLQESGGGLVQTGGSLRLSCAVHGRTFSNTGMGWFRQAPGNERQFVAIISPSGTSTYYADSVKGRFTISRDPAKNTVYLQMNSLKMDDTAVYYCAASYGSNWSTLRHQRRNEYDAWGQGTQVAVS
B3: A2+B3 (protein)
VHH 1: B2 VHH 1
VHH 2: DVQLQESGGGLVQAGGSLRLSCAASGFIFRLAGMSWVRQAPGKGFEWVSGITMDGSTTNYADSVKGRFTISRDNSKNRLYLQMNSLKPEDTAVYYCARGAKGGYNDPRGQGTQVTVS
B4: A2+B2 (protein)
VHH 1: B2 VHH 1
VHH 2: QVQLVESGGGLVQAGGSLRLSCAVFGSTFSNNVADWYRQAPGKQRELVARISASGATREYGDSVKGRFTISRDDAKNTMYLQMNNLKPEDTAVYRCHKIEWEDLSRKDYWGQGTQVTVS
B5: sdAb A2 (VHH)
VHH: B2 VHH 1
B6: sdAb A1 (VHH)
VHH: EVQLLESGGGLVQPGGSLRLSCAASGFTFGNYDMAWVRQAPGKRPEWVSSIDTGGDITHYADSVKGRFTISRDNAKNTLYLQMNSLRPEDTAVYWCATDEEYALGPNEFDYYGQGTLVTVSS
B7: CIgG4B1A1(G4S)1 (Fc fusion)
chain 1: GPPCPPCPAPEFLGGPSVFLFPPKPKDTLMISRTPEVTCVVVDVSQEDPEVQFNWYVDGVEVHNAKTKPREEQFNSTYRVVSVLTVLHQDWLNGKEYKCKVSNKGLPSSIEKTISKAKGQPREPQVYTLPPCQEEMTKNQVSLWCLVKGFYPSDIAVEWESNGQPENNYKTTPPVLDSDGSFFLYSRLTVDKSRWQEGNVFSCSVMHEALHNHYTQKSLSLSLGKGGGGSQVQLQESGGGLVQTGGSLRLSCAVHGRTFSNTGMGWFRQAPGNERQFVAIISPSGTSTYYADSVKGRFTISRDPAKNTVYLQMNSLKMDDTAVYYCAASYGSNWSTLRHQRRNEYDAWGQGTQVAVS
chain 2: GPPCPPCPAPEFLGGPSVFLFPPKPKDTLMISRTPEVTCVVVDVSQEDPEVQFNWYVDGVEVHNAKTKPREEQFNSTYRVVSVLTVLHQDWLNGKEYKCKVSNKGLPSSIEKTISKAKGQPREPQVCTLPPSQEEMTKNQVSLSCAVKGFYPSDIAVEWESNGQPENNYKTTPPVLDSDGSFFLVSRLTVDKSRWQEGNVFSCSVMHEALHNHYTQKSLSLSLGKGGGGSEVQLLESGGGLVQPGGSLRLSCAASGFTFGNYDMAWVRQAPGKRPEWVSSIDTGGDITHYADSVKGRFTISRDNAKNTLYLQMNSLRPEDTAVYWCATDEEYALGPNEFDYYGQGTLVTVSS
B8: CIgG4B1A1(G4S3) (Fc fusion)
chain 1: GPPCPPCPAPEFLGGPSVFLFPPKPKDTLMISRTPEVTCVVVDVSQEDPEVQFNWYVDGVEVHNAKTKPREEQFNSTYRVVSVLTVLHQDWLNGKEYKCKVSNKGLPSSIEKTISKAKGQPREPQVYTLPPCQEEMTKNQVSLWCLVKGFYPSDIAVEWESNGQPENNYKTTPPVLDSDGSFFLYSRLTVDKSRWQEGNVFSCSVMHEALHNHYTQKSLSLSLGKGGGGSGGGGSGGGGSQVQLQESGGGLVQTGGSLRLSCAVHGRTFSNTGMGWFRQAPGNERQFVAIISPSGTSTYYADSVKGRFTISRDPAKNTVYLQMNSLKMDDTAVYYCAASYGSNWSTLRHQRRNEYDAWGQGTQVAVS
chain 2: GPPCPPCPAPEFLGGPSVFLFPPKPKDTLMISRTPEVTCVVVDVSQEDPEVQFNWYVDGVEVHNAKTKPREEQFNSTYRVVSVLTVLHQDWLNGKEYKCKVSNKGLPSSIEKTISKAKGQPREPQVCTLPPSQEEMTKNQVSLSCAVKGFYPSDIAVEWESNGQPENNYKTTPPVLDSDGSFFLVSRLTVDKSRWQEGNVFSCSVMHEALHNHYTQKSLSLSLGKGGGGSGGGGSGGGGSEVQLLESGGGLVQPGGSLRLSCAASGFTFGNYDMAWVRQAPGKRPEWVSSIDTGGDITHYADSVKGRFTISRDNAKNTLYLQMNSLRPEDTAVYWCATDEEYALGPNEFDYYGQGTLVTVSS

Tests used:
[1] = molecular target: IgE on basophils of allergic donors (human) (UniProt P01854); assay: displacement of IgE from FcεRI on basophils, whole blood of an allergic donor, flow cytometry of surface IgE [panel C]
[2] = molecular target: IgE on basophils of allergic donors (human) (UniProt P01854); assay: displacement of IgE from FcεRI on basophils, whole blood of an allergic donor, flow cytometry of surface IgE [panel B]
[3] = molecular target: mixture of three Der p 2 specific recombinant human IgE clones H10, H12, P4E (human) (UniProt P01854); assay: RBL-SX38 IgE displacement, FACS
[4] = molecular target: IgE on basophils of allergic donors (human) (UniProt P01854); assay: IgE surface stain on donor basophils, flow cytometry
[5] = molecular target: IgE on basophils of allergic donors (human) (UniProt P01854); assay: cell-based or functional assay
[6] = molecular target: IgE on basophils of allergic donors (human) (UniProt P01854); assay: IgE surface stain on donor basophils after 1 µM sdAb, flow cytometry

Sequence of IgE on basophils of allergic donors (human) (P01854 1-428): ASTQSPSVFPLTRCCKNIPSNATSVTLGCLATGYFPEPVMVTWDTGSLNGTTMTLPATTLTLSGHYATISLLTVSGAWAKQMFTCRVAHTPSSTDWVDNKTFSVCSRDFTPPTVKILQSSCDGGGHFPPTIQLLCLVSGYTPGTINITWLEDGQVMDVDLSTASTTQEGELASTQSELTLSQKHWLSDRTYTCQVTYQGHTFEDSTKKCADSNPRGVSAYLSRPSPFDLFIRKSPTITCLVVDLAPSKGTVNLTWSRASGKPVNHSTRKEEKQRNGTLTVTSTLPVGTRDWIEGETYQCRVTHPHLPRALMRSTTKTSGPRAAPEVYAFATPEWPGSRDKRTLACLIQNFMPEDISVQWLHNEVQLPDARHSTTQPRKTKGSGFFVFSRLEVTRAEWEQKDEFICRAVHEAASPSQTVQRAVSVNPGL
Sequence of mixture of three Der p 2 specific recombinant human IgE clones H10, H12, P4E (human) (P01854 other isoform, or with tags, fused parts or gaps): as the sequence (P01854 1-428) above, with L428K counted along it

Binder | EC50 (read off the curve) [1] | EC50 (read off the curve) [2] | EC50 [3] | Max effect/effect 1 µM [3] | displacement effect on IgE surface expression [4] | other results
B1 | 3 nM | 4 nM | 19.5 nM | 99% |  | 
B2 |  |  |  |  | 100% | 
B3 |  |  |  |  | 70% | 
B4 |  |  |  |  | 100% | 
B5 |  |  |  |  | 70% | 
B6 |  |  |  | 40% |  | fold decrease in rDerp2-induced activation of basophils of a HDM allergic donor (% CD63 pos basophils) [5]: 10 fold; displacement effect measured by IgE expression [6]: 16%
B7 | 4 nM | 4 nM | 22.4 nM | 99% |  | 
B8 | 4 nM | 6 nM | 14.1 nM | 99% |  | 

— patent US20250171562A1
